One experiment addresses T1, FLAG-ZRANB3 (human, UniProt Q5FWF4 1-1079).
T1 construct: also called ZRANB3 WT
T1 sequence (looked up): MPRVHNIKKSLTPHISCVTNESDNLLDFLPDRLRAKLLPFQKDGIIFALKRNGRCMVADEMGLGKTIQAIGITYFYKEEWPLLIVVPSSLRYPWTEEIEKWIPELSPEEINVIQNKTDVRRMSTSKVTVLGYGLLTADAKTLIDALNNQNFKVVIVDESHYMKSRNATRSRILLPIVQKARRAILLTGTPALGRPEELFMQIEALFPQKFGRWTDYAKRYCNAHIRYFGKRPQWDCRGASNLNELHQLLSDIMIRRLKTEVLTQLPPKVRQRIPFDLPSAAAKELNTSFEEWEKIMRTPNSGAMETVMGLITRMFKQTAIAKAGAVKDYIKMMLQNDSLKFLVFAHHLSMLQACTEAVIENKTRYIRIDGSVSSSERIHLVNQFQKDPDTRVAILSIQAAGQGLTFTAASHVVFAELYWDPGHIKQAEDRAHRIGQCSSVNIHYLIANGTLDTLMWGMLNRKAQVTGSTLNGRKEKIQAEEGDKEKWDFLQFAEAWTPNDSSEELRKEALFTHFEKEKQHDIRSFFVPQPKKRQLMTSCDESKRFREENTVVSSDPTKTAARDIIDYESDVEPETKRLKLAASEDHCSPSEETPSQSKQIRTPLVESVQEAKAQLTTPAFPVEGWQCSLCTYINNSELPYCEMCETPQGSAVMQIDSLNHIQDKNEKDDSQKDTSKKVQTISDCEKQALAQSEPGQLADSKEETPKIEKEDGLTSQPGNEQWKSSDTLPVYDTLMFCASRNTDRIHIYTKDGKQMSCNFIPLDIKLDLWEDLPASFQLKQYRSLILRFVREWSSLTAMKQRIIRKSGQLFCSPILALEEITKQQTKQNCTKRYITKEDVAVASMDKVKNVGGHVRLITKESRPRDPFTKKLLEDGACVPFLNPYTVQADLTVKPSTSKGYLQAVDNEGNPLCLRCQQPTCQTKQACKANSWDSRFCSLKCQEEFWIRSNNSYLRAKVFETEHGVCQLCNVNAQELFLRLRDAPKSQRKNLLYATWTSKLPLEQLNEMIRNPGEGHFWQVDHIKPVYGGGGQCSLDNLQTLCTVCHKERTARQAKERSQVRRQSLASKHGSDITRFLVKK
The experiment is described as follows: pull-down; MBP-RAD51 (bait) from bacterial soluble extract bound to amylose resin and washed; purified FLAG-SMARCAL1, FLAG-ZRANB3 or FLAG-BCDX2 (1 μg, prey) in 150 μl IP buffer (25 mM Tris-HCl pH 7.5, 100 mM NaCl, 3 mM EDTA, 0.5 mM DTT, BSA, 10% glycerol), 1 h at 4°C; eluted with maltose; Western blot with anti-MBP and anti-FLAG. The note with it: both partners purified. Background: A western blot detects proteins with antibodies after separation by electrophoresis.

The target of another experiment is T2, ZRANB3 F47A (human, UniProt Q5FWF4 1-1079, F47A).
T2 construct: human ZRANB3 with F47A; construct as m2; also called F47A substitution mutant; source: Sf9, expressed and purified similarly as the wild type
T2 sequence (looked up): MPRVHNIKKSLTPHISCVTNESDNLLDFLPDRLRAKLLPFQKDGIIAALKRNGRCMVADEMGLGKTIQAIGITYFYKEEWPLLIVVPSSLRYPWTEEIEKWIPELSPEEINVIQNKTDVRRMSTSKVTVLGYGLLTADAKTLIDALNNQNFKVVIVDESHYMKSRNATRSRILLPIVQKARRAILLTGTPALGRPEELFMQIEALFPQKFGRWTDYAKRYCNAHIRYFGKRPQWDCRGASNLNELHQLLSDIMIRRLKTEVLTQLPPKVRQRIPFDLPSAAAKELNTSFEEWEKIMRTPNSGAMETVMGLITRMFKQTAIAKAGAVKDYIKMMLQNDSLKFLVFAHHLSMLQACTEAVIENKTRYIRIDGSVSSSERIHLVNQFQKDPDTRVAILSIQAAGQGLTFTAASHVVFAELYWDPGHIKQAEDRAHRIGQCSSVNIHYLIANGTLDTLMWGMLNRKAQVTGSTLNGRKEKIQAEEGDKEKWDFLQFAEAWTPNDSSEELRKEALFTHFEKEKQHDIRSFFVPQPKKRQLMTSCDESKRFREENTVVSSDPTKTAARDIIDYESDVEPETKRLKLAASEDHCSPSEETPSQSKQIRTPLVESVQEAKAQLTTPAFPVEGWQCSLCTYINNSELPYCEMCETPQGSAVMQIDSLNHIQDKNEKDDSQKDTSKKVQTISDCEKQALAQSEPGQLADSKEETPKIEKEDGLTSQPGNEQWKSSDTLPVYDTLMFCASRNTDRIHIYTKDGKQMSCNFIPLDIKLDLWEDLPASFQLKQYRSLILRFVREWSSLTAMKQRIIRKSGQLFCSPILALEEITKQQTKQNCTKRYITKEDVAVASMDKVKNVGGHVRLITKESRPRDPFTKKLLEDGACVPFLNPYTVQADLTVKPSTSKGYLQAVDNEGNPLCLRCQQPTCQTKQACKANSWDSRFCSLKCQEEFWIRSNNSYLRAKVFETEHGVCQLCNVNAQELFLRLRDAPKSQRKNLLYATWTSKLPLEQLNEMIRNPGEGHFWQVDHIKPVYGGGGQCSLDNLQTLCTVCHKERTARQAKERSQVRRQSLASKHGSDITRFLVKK
The experiment is described as follows: pull-down; ZRANB3 F→A variants and RAD51 (Supplementary Figure S4); the methods tell two set-ups (MBP-RAD51 on amylose resin with purified FLAG-ZRANB3; FLAG-ZRANB3 variants from Sf9 soluble extract on anti-FLAG resin with purified RAD51) and the text does not tell which was used for which variant; 100 mM NaCl, 1 h at 4°C. The settings on record: both partners purified.

B1: MBP-RAD51 (natural protein, human, UniProt Q06609 1-339, looked up)
chain: MAMQMQLEANADTSVEEESFGPQPISRLEQCGINANDVKKLEEAGFHTVEAVAYAPKKELINIKGISEAKADKILAEAAKLVPMGFTTATEFHQRRSEIIQITTGSKELDKLLQGGIETGSITEMFGEFRTGKTQICHTLAVTCQLPIDRGGGEGKAMYIDTEGTFRPERLLAVAERYGLSGSDVLDNVAYARAFNTDHQTQLLYQASAMMVESRYALLIVDSATALYRTDYSGRGELSARQMHLARFLRMLLRLADEFGVAVVITNQVVAQVDGAAMFAADPKKPIGGNIIAHASTTRLYLRKGRGETRICKIYDSPCLPEAEAMFAINADGVGDAKD
notes: In the pull-downs the MBP tag was kept; the RAD51 of the DNA annealing assays was the same construct with the MBP cut off by PreScission protease and purified on HiTrap Q; not shown: MBP, N-terminal, kept
B1: the binding result with FLAG-ZRANB3 and with ZRANB3 F47A was “binds” throughout.

Source of the values: publication PMC9371921, “Strand annealing and motor driven activities of SMARCAL1 and ZRANB3 are stimulated by RAD51 and the paralog complex” (Nucleic Acids Research, 2022).
